Assay results taken from patent US20200095333A1 (published 2020).

What was measured:
[1] = target: T1, sCD16A (soluble CD16A, FcgammaRIIIA) (human, UniProt P08637 17-208); assay: SPR (BIAcore), receptor immobilised, diabody 6.25-200 nM
T1 construct: extracellular domain; given only as soluble; used immobilised (SPR), coated, or biotin/HRP-labelled as probe (ELISA); also called CD16 antigen; sCD16A-Biotin

[2] = target: T2, sCD32B (soluble CD32B, FcgammaRIIB) (human, UniProt P31994 43-217); assay: as above
T2 construct: extracellular domain; also called soluble CD32B ectodomain
T2 sequence: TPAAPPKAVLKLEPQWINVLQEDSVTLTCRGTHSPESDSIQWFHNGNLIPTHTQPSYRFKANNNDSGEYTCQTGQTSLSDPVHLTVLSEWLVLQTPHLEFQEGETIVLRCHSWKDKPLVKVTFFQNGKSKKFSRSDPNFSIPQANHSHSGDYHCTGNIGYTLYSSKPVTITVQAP

[3] = target: T3, sCD32A (soluble CD32A, negative control receptor) (UniProt P12318 34-217); assay: SPR (BIAcore), receptor immobilised
T3 construct: extracellular domain
T3 sequence: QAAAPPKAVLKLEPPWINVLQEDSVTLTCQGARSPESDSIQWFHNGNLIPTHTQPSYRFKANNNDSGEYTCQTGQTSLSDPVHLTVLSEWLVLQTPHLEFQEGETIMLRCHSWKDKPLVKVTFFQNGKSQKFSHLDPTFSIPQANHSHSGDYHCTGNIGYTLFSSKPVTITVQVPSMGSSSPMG

T1 sequence (P08637 17-208): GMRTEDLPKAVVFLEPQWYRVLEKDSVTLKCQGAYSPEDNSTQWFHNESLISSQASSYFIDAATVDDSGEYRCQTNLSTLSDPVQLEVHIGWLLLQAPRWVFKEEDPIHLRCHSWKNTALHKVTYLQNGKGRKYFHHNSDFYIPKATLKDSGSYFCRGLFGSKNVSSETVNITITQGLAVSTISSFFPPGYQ

B1: h2B6-h3G8 CBD (covalent bispecific diabody, constructs 1 and 2) (bispecific antibody)
chain 1: EIVLTQSPDFQSVTPKEKVTFTCRTSQSIGTNIHWYQQKPDQSPKLLIKEVSESISGVPSRFSGSGSGTDFTLTINSLEAEDAATYYCQQSNTWPFTFGGGTKVEIKGGGSGGGGQVTLRESGPALVKPTQTLTLTCTFSGFSLSTSGMGVGWIRQPPGKALEWLAHIWWDDDKRYNPALKSRLTISKDTSKNQVVLTMTNMDPVDTATYYCAQINPAWFAYWGQGTLVTVSSLGGC
chain 2: DIVMTQSPDSLAVSLGERATINCKASQSVDFDGDSFMNWYQQKPGQPPKLLIYTTSNLESGVPDRFSGSGSGTDFTLTISSLQAEDVAVYYCQQSNEDPYTFGQGTKLEIKGGGSGGGGQVQLVQSGAEVKKPGASVKVSCKASGYTFTNYWIHWVRQAPGQGLEWIGVIDPSDTYPNYNKKFKGRVTMTVVVSTSTAYMELRSLRSDDTAVYYCARNGDSDYYSGMDYWGQGTTVTVSSLGGC
notes: also called h2B6-h3G8 diabody; h2B6-h3G8 covalent heterodimer
B1 was tested, and the Kd [1] was 22.7 nM, the Kd [2] was 15 nM and the binding result [3] was “no binding (tested: 100 nM)”.
